According to PMC6694833, “Rational Design of Zika Virus Subunit Vaccine with Enhanced Efficacy” (Journal of Virology, 2019):

B1: ZV-67, ZIKV EDIII-specific neutralizing MAb (antibody, V domains shown)
VH: QAQLQQSGTGLARPGASVKLSCKASGYTFTSYGISWVTQRAGQGLEWIGVIYPRSGNTYYNEKFRGKATLTADKSSSSAYMELRGLTAEDSAVYFCARENYGSVYWGQGTTLTVSS
VL: DIVMTQSQKFMSTSVGDRVSITCKASQNVGTAVAWYQQKPGQSPKLLIYSASNRYTGVPDRFTGSGSGTDFTLTISNMQSEDLADYFCQQFSSYPYTFGGGTKLEIK
notes: also called MAb ZV-67; human MAb ZV-67; source: bought: Absolute Antibody
B2: ZV-2, ZIKV EDIII-specific nonneutralizing mouse MAb (antibody, V domains shown)
VH: QVQLQESGAELMKPGASVKLSCKTSGYTFIGYWIEWLKQRPGHGLEWVGEIFPGSGRTKYNEKFKGRATFTADTSSNMAYMQLSSLTTEDSAIYYCARYYYGSYYALDYWGQGTSVTVSS
VL: DIVMTQSPSSLSVSAGEKVTLSCKSSQSLLHSGNQKNYLAWYQQKPGQAPKLLIYGASTRESGVPDRFTGSGSGTDFTLTISSVQAEDLAVYYCQNDHSYPLTFGAGTKLELK
notes: also called MAb ZV-2; source: bought: BEI Resources

Key:
Z004 = assay: ELISA; settings: read at the highest MAb concentration plotted (about 2000 ng/ml, estimated from the x axis); parent: est. 3.5; read off a plot
ZKA64-LALA = assay: ELISA; settings: read at the highest MAb concentration plotted (about 2000 ng/ml, estimated from the x axis); parent: est. 3.4; read off a plot
[1] = biological target: ZV-2, ZIKV EDIII-specific nonneutralizing mouse MAb; assay: ELISA; settings: read at the highest MAb concentration plotted (about 500 ng/ml, estimated from the x axis); parent: est. 3.6; read off a plot
ZV-54 = assay: ELISA; settings: read at the highest MAb concentration plotted (about 250 ng/ml, estimated from the x axis); parent: est. 3.7; read off a plot
[2] = biological target: ZV-67, ZIKV EDIII-specific neutralizing MAb; assay: ELISA; settings: read at the highest MAb concentration plotted (about 500 ng/ml, estimated from the x axis); parent: est. 3.6; read off a plot
[3] = biological target: T1, ZIKV EDIII protein containing residues 298 to 409 (wild type) fused with a C-terminal human IgG1 Fc tag (Zika virus, strain ZikaSPH2015 (GenBank …, UniProt A0A0U3FSM8, strain)); assay: ELISA; plates coated with wild-type or mutant ZIKV EDIII protein overnight at 4°C, blocked with 2% fat-free milk in PBST; serially diluted MAbs, then HRP-conjugated anti-mouse IgG-Fab or anti-human IgG-Fab, 1 h at 37°C; absorbance at 450 nm; settings: both partners purified
T1 construct: also called wild-type EDIII; WT EDIII; not shown: Fc (human IgG1), C-terminal, kept

Molecule	response (Z004) [A450]	response (ZKA64-LALA) [A450]	response [1] [A450]	response (ZV-54) [A450]	response [2] [A450]	binding result [3]
ZIKV EDIII protein containing residues 298 to 409 (wild type) fused with a C-terminal human IgG1 Fc tag M375N; E377T	3.5	3.4	0.15	3.7	3.6	
B1						binds
B2						binds
